The Human Domainome abundance scans (Beltran et al. 2025)

B1: POU domain, class 4, transcription factor 3, residues 185 to 256; numbered along this chain, Q15319 (parent)
chain: RELEAFAERFKQRRIKLGVTQADVGAALANLKIPGVGSLSQSTICRFESLTLSHNNMIALKPVLQAWLEEAE

Variants of: B1
Assay: abundance fitness (aPCA) (normalised: wild type 0, dead -1); higher = more abundant; growth selection in yeast, the domain comes from the species named
Conditions: Homo sapiens

Abundance fitness of substitutions, site by site:
I44: V 0.08
C45: W -0.234 | Y -0.01 | M -0.048 | F -0.001 | Q 0.003 | T 0.012 | K 0.109 | S -0.042 | H 0.053 | P -0.25 | I 0.104 | L -0.06 | N -0.007
I33: Y -0.105 | M -0.283 | F -0.223 | K -0.391 | V -0.515 | T -0.197 | S -0.764 | L 0.062 | P -0.139 | N -0.341
L39: D -0.304 | S -0.109 | A -0.053 | P 0.054 | G -0.912 | F -0.687 | V 0.034 | W -0.596 | R -0.606
P34: L -0.386 | V -0.271 | F -0.474 | C -0.137 | S -0.124 | R -0.353 | T -0.058 | Q -0.458 | M -0.141 | A 0.029 | Y -0.379 | W -0.571 | I -0.419 | K -0.433 | G -0.313
L31: V 0.086 | T -0.094 | Y -0.228 | W -0.008
G37: L -0.172 | A -0.127 | M -0.153 | R -0.063 | W -0.669 | E 0.038 | H 0.011 | V -0.039 | Y 0.024 | S -0.001 | D -0.093 | P -0.055 | Q 0.003 | K -0.018
V36: T -0.3 | A -0.089 | F -0.043 | G -0.242 | E -0.055 | H -0.072 | L -0.011 | R -0.332 | Y -0.121 | S -0.077 | I 0.117 | P -0.398 | M 0.044 | N -0.234 | Q -0.261 | W -0.091
S38: T 0.017 | R -0.052 | A -0.346 | I -0.017 | C -0.27 | Y -0.055 | W -0.389 | Q 0.029 | F 0.057 | P 0.055 | V 0.065 | L -0.031 | H -0.018 | M -0.006 | N 0.022
S42: F -0.225 | T -0.116 | Q 0.017 | K 0.046 | N 0.06 | P -0.428 | I -0.363 | M -0.1
S40: Q -0.287 | N -0.183 | P -0.154 | L -0.488 | R -0.175 | I -0.664 | W -0.42 | F -0.468 | A -0.222 | Y -0.422 | H -0.013 | D 0.037 | M -0.29 | C -0.066 | V -0.354
K32: F -0.174 | A -0.056 | E 0.034 | W -0.162 | L -0.146 | Y -0.12 | G -0.169 | R -0.039 | P -0.158 | T -0.088 | V -0.009 | S -0.031 | M -0.048 | I -0.049 | Q -0.175 | N 0.004 | D -0.076 | H -0.113
G35: F -0.231 | S -0.193 | Q -0.076 | H -0.038 | I -0.569 | M -0.099 | P -0.285 | K -0.291 | Y -0.26 | N -0.121
R46: A 0.031
T43: M -0.053 | L -0.012 | I -0.089 | D -0.29 | H -0.296 | P -0.836 | F -0.425 | S -0.2 | A -0.148 | V -0.031 | W -0.382 | R -0.607 | C -0.333 | Q -0.105 | K -0.153 | N -0.746 | E -0.235 | G -0.65
